Assay [1] deals with T1, DENV-1 envelope protein domain III (DIII), fused with IgG1 Fc and a C-terminal Avi-tag (Dengue virus type 1, strain ; …, UniProt B6DXD2).
T1 construct: also called DENV-1 DIII; DENV1 DIII
Kind of assay: SPR. The note with it: both partners purified.

Assay [2] deals with T2, DENV-4 envelope protein domain III (DIII), fused with IgG1 Fc and a C-terminal Avi-tag (Dengue virus type 4, strain ; …, UniProt P09866).
T2 construct: also called DENV-4 DIII; DENV4 DIII
The assay is described as follows: SPR. To be noted: both partners purified.

In assay [3] the target is T3, DENV-2 envelope protein domain III (DIII), fused with IgG1 Fc and a C-terminal Avi-tag (Dengue virus type 2, strain ; …).
T3 construct: also called DENV-2 DIII; DENV2 DIII
T3 chain: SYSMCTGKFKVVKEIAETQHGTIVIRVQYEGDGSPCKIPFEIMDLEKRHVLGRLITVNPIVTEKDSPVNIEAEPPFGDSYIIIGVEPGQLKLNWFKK
Kind of assay: SPR. To be noted: both partners purified.

In assay [4] the target is T4, DENV-3 envelope protein domain III (DIII), fused with IgG1 Fc and a C-terminal Avi-tag (Dengue virus type 3, strain ; …, UniProt Q99D35).
T4 construct: also called DENV-3 DIII; DENV3 DIII
The assay is described as follows: SPR. To be noted: both partners purified.

Assay [5] deals with T1, DENV-1 envelope protein domain III …. The assay is described as follows: cell-based or functional assay.
Assay [6] addresses T2, DENV-4 envelope protein domain III …. The assay is described as follows: cell-based or functional assay.
For assay [7], the target named is T3, DENV-2 envelope protein domain III …. The assay is described as follows: cell-based or functional assay.
Assay [8] concerns the target T4, DENV-3 envelope protein domain III …. Kind of assay: cell-based or functional assay.

B1: m366.6 scFv-Fc (scFv, V domains shown)
VH: QLQLQESGGGLVQPGGSLRLSCAASGFTFSSHSMNWIRQAPGKRLEWVSSISSSSSYIYYADSVRGRFTISRDNAKNSLYLQMDSLRAEDTAVYYCARYMAGIWTFDIWGQGTMVTVSS
VL: SYELTQPPSVSVAPGKTASISCGGDNIGRKSVHWFQQKPGQAPVLVLYDDSDRPSGIPARFSGSNSGNTATLTISGVEAGDEADYYCQVWARSSDLPNWVFGGGTKLTVL
notes: also called mAb m366.6
One may read the Kd as the equilibrium constant for the complex coming apart. The term koff denotes a measure of how fast the partners let go of each other. Read a low koff as slow dissociation. Usually kon stands for a measure of how fast the partners come together. In the case of B1, the equilibrium dissociation constant (Kd) in assay [1] came out at 0.78 nM; in assay [2], 1.9 nM; in assay [3], 0.29 nM; in assay [4], 0.27 nM. Besides, the koff was 0.00025 s⁻¹ in assay [1], 0.00062 s⁻¹ in assay [2], 0.00025 s⁻¹ in assay [3] and 0.00018 s⁻¹ in assay [4]. Moreover, the kon in assay [1] came to 320000 M⁻¹ s⁻¹; in assay [2], 330000 M⁻¹ s⁻¹; in assay [3] it was 960000 M⁻¹ s⁻¹; in assay [4], 660000 M⁻¹ s⁻¹. Moreover, the other worked out at 22 µg/mL in assay [5], 0.36 µg/mL in assay [6], 2.4 µg/mL in assay [7] and 0.85 µg/mL in assay [8].
